Results from FireProtDB (doi:10.1016/0022-2836(91)90725-l).

Conditions: Bacillus amyloliquefaciens; pH 6.3; 25 °C; Urea; Fluorescence; MES 1.00 M; NaCl 613 mM; reversible: yes; whole UniProt chain shown

B1: Ribonuclease wild type, P00648 (protein)
chain: MMKMEGIALKKRLSWISVCLLVLVSAAGMLFSTAAKTETSSHKAHTEAQVINTFDGVADYLQTYHKLPDNYITKSEAQALGWVASKGNLADVAPGKSIGGDIFSNREGKLPGKSGRTWREADINYTSGFRNSDRILYSSDWLIYKTTDHYQTFTKIR
- denaturant m value: 2.22 kcal/mol/M
- denaturant midpoint (higher = more stable): 4.57 M
- unfolding free energy: 10.2 kcal/mol
